T1: B3GNT2 (Homo sapiens, UniProt Q9NY97)
T1 construct: The respective ORFs of candidate genes [CD274 (NM_014143), MCL1 (NM_021960), JUNB (NM_002229), and B3GNT2 (NM_006577)] were synthesized; expressed in transfected cells; host or cells: A375 melanoma cells (lentiviral ORF overexpression)
T1 sequence (Q9NY97 1-397): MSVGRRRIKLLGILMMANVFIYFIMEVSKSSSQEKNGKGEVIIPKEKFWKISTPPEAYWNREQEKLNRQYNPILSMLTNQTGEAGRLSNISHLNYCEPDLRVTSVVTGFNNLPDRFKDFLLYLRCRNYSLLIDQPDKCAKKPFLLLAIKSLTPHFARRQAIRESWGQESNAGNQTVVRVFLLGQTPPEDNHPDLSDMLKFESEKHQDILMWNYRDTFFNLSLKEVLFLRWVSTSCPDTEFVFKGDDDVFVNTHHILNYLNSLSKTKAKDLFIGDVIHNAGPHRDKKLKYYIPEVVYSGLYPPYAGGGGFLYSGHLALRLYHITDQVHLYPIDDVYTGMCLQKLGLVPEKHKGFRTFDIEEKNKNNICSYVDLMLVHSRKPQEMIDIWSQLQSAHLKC


Biological target: T1, B3GNT2
Experiment: Co-IP of FLAG-tagged B3GNT2 followed by mass spectrometry
Assay type: cell-based
Set-up: C-term IgG / C-term flag: unit not given here
Settings: Co-IP followed by mass spectrometry of B3GNT2; for C-term flag / C-term IgG: C-term tag; for C-term flag / N-term FLAG: FLAG pull-down; for C-term IgG / N-term IgG: IgG pull-down; for N-term FLAG / N-term IgG: N-term tag
Method in brief: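 FLAG-tagged B3GNT2 immunoprecipitated from cell lysate (HEPES, 1% Triton X-100, 150 mM NaCl) with anti-FLAG versus […], overnight at 4° C, then captured on Protein A/G magnetic beads for 4 h. Two biological replicates per condition. Peptides fractionated and analyzed by nano-LC on an Orbitrap Elite in data-dependent mode.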

Row | Molecule | C-term flag | C-term IgG | N-term FLAG | N-term IgG
1 | P4HA2 (protein) EFFTSIGHMTDLIYAEKELVQSLKEYILVEEAKLSKIKSWANKMEALTSKSAADAEGYLAHPVNAYKLVKRLNTDWPALEDLVLQDSAAGFIANLSVQRQFFPTDEDEIGAAKALMRLQDTYRLDPGTISRGELPGTKYQAMLSVDDCFGMGRSAYNEGDYYHTVLWMEQVLKQLDAGEEATTTKSQVLDYLSYAVFQLGDLHRALELTRRLLSLDPSHERAGGNLRYFEQLLEEEREKTLTNQTEAELATPEGIYERPVDYLPERDVYESLCRGEGVKLTPRRQKRLFCRYHHGNRAPQLLIAPFKEEDEWDSPHIVRYYDVMSDEEIERIKEIAKPKLARATVRDPKTGVLTVASYRVSKSSWLEEDDDPVVARVNRRMQHITGLTVKTAELLQVANYGVGGQYEPHFDFSRNDERDTFKHLGTGNRVATFLNYMSDVEAGGATVFPDLGAAIWPKKGTAVFWYNLLRSGEGDYRTRHAACPVLVGCKWVSNKWFHERGQEFLRPCGSTEVD | 4 | 0 | 0 | 0
2 | CPSF7 (protein) MSEGVDLIDIYADEEFNQDPEFNNTDQIDLYDDVLTATSQPSDDRSSSTEPPPPVRQEPSPKPNNKTPAILYTYSGLRNRRAAVYVGSFSWWTTDQQLIQVIRSIGVYDVVELKFAENRANGQSKGYAEVVVASENSVHKLLELLPGKVLNGEKVDVRPATRQNLSQFEAQARKRECVRVPRGGIPPRAHSRDSSDSADGRATPSENLVPSSARVDKPPSVLPYFNRPPSALPLMGLPPPPIPPPPPLSSSFGVPPPPPGIHYQHLMPPPPRLPPHLAVPPPGAIPPALHLNPAFFPPPNATVGPPPDTYMKASAPYNHHGSRDSGPPPSTVSEAEFEDIMKRNRAISSSAISKAVSGASAGDYSDAIETLLTAIAVIKQSRVANDERCRVLISSLKDCLHGIEAKSYSVGASGSSSRKRHRSRERSPSRSRESSRRHRDLLHNEDRHDDYFQERNREHERHRDRERDRHH | 9 | 9 | 12 | 8
3 | DDX3X (protein) SHVAVENALGLDQQFAGLDLNSSDNQSGGSTASKGRYIPPHLRNREATKGFYDKDSSGWSSSKDKDAYSSFGSRSDSRGKSSFFSDRGSGSRGRFDDRGRSDYDGIGSRGDRSGFGKFERGGNSRWCDKSDEDDWSKPLPPSERLEQELFSGGNTGINFEKYDDIPVEATGNNCPPHIESFSDVEMGEIIMGNIELTRYTRPTPVQKHAIPIIKEKRDLMACAQTGSGKTAAFLLPILSQIYSDGPGEALRAMKENGRYGRRKQYPISLVLAPTRELAVQIYEEARKFSYRSRVRPCVVYGGADIGQQIRDLERGCHLLVATPGRLVDMMERGKIGLDFCKYLVLDEADRMLDMGFEPQIRRIVEQDTMPPKGVRHTMMFSATFPKEIQMLARDFLDEYIFLAVGRVGSTSENITQKVVWVEESDKRSFLLDLLNATGKDSLTLVFVETKKGADSLEDFLYHEGYACTSIHGDRSQRDREEALHQFRSGKSPILVATAVAARGLDISNVKHVINFDLPSDIEEYVHRIGRTGRVGNLGLATSFFNERNINITKDLLDLLVEAKQEVPSWLENMAYEHHYKGSSRGRSKSSRFSGGFGARDYRQSSGASSSSFSSSRASSSRSGGGGHGSSRGFGGGGYGGFYNSDGYGGNYNSQGVDWWGN | 23 | 15 | 18 | 19

Further lines, results first:

Row | C-term flag | C-term IgG | N-term FLAG | N-term IgG | Molecule
4 | 43 | 36 | 47 | 39 | JUP (protein) MEVMNLMEQPIKVTEWQQTYTYDSGIHSGANTCVPSVSSKGIMEEDEACGRQYTLKKTTTYTQGVPPSQGDLEYQMSTTARAKRVREAMCPGVSGEDSSLLLATQVEGQATNLQRLAEPSQLLKSAIVHLINYQDDAELATRALPELTKLLNDEDPVVVTKAAMIVNQLSKKEASRRALMGSPQLVAAVVRTMQNTSDLDTARCTTSILHNLSHHREGLLAIFKSGGIPALVRMLSSPVESVLFYAITTLHNLLLYQEGAKMAVRLADGLQKMVPLLNKNNPKFLAITTDCLQLLAYGNQESKLIILANGGPQALVQIMRNYSYEKLLWTTSRVLKVLSVCPSNKPAIVEAGGMQALGKHLTSNSPRLVQNCLWTLRNLSDVATKQEGLESVLKILVNQLSVDDVNVLTCATGTLSNLTCNNSKNKTLVTQNSGVEALIHAILRAGDKDDITEPAVCALRHLTSRHPEAEMAQNSVRLNYGIPAIVKLLNQPNQWPLVKATIGLIRNLALCPANHAPLQEAAVIPRLVQLLVKAHQDAQRHVAAGTQQPYTDGVRMEEIVEGCTGALHILARDPMNRMEIFRLNTIPLFVQLLYSSVENIQRVAAGVLCELAQDKEAADAIDAEGASAPLMELLHSRNEGTATYAAAVLFRISEDKNPDYRKRVSVELTNSLFKHDPAAWEAAQSMIPINEPYGDDMDATYRPMYSSDVPLDPLEMHMDMDGDYPIDTYSDGLRPPYPTADHMLA
5 | 2 | 0 | 2 | 0 | XPOT (protein) MDEQALLGLNPNADSDFRQRALAYFEQLKISPDAWQVCAEALAQRTYSDDHVKFFCFQVLEHQVKYKYSELTTVQQQLIRETLISWLQAQMLNPQPEKTFIRNKAAQVFALLFVTEYLTKWPKFFFDILSVVDLNPRGVDLYLRILMAIDSELVDRDVVHTSEEARRNTLIKDTMREQCIPNLVESWYQILQNYQFTNSEVTCQCLEVVGAYVSWIDLSLIANDRFINMLLGHMSIEVLREEACDCLFEVVNKGMDPVDKMKLVESLCQVLQSAGFFSIDQEEDVDFLARFSKLVNGMGQSLIVSWSKLIKNGDIKNAQEALQAIETKVALMLQLLIHEDDDISSNIIGFCYDYLHILKQLTVLSDQQKANVEAIMLAVMKKLTYDEEYNFENEGEDEAMFVEYRKQLKLLLDRLAQVSPELLLASVRRVFSSTLQNWQTTRFMEVEVAIRLLYMLAEALPVSHGAHFSGDVSKASALQDMMRTLVTSGVSSYQHTSVTLEFFETVVRYEKFFTVEPQHIPCVLMAFLDHRGLRHSSAKVRSRTAYLFSRFVKSLNKQMNPFIEDILNRIQDLLELSPPENGHQSLLSSDDQLFIYETAGVLIVNSEYPAERKQALMRNLLTPLMEKFKILLEKLMLAQDEERQASLADCLNHAVGFASRTSKAFSNKQTVKQCGCSEVYLDCLQTFLPALSCPLQKDILRSGVRTFLHRMIICLEEEVLPFIPSASEHMLKDCEAKDLQEFIPLINQITAKFKIQVSPFLQQMFMPLLHAIFEVLLRPAEENDQSAALEKQMLRRSYFAFLQTVTGSGMSEVIANQGAENVERVLVTVIQGAVEYPDPIAQKTCFIILSKLVELWGGKDGPVGFADFVYKHIVPACFLAPLKQTFDLADAQTVLALSECAVTLKTIHLKRGPECVQYLQQEYLPSLQVAPEIIQEFCQALQQPDAKVFKNYLKVFFQRAKP
6 | 4 | 0 | 0 | 0 | PLOD1 (protein) KGDAKPEDNLLVLTVATKETEGFRRFKRSAQFFNYKIQALGLGEDWNVEKGTSAGGGQKVRLLKKALEKHADKEDLVILFADSYDVLFASGPRELLKKFRQARSQVVFSAEELIYPDRRLETKYPVVSDGKRFLGSGGFIGYAPNLSKLVAEWEGQDSDSDQLFYTKIFLDPEKREQINITLDHRCRIFQNLDGALDEVVLKFEMGHVRARNLAYDTLPVLIHGNGPTKLQLNYLGNYIPRFWTFETGCTVCDEGLRSLKGIGDEALPTVLVGVFIEQPTPFVSLFFQRLLRLHYPQKHMRLFIHNHEQHHKAQVEEFLAQHGSEYQSVKLVGPEVRMANADARNMGADLCRQDRSCTYYFSVDADVALTEPNSLRLLIQQNKNVIAPLMTRHGRLWSNFWGALSADGYYARSEDYVDIVQGRRVGVWNVPYISNIYLIKGSALRGELQSSDLFHHSKLDPDMAFCANIRQQDVFMFLTNRHTLGHLLSLDSYRTTHLHNDLWEVFSNPEDWKEKYIHQNYTKALAGKLVETPCPDVYWFPIFTEVACDELVEEMEHFGQWSLGNNKDNRIQGGYENVPTIDIHMNQIGFEREWHKFLLEYIAPMTEKLYPGYYTRAQFDLAFVVRYKPDEQPSLMPHHDASTFTINIALNRVGVDYEGGGCRFLRYNCSIRAPRKGWTLMHPGRLTHYHEGLPTTRGTRYIAVSFVDP
7 | 4 | 0 | 0 | 0 | TTC13 (protein) MAPAGCCCCCCFWGGAVAAAGAARRVLLLLLLGVLSAGLRPGALATEHYSPLSLLKQELQHRQQQEAPAGGGGCSPQSGDWGDQYSAECGESSFLNFHDSDCEPKGSSPCDSLLSLNTEKILSQAKSIAEQKRFPFATDNDSTNEELAIAYVLIGSGLYDEAIRHFSTMLQILSPLGRINEAVNDLTKAIQLQPSARLYRHRGTLYFISEDYATAHEDFQQSLELNKNQPIAMLYKGLTFFHRGLLKEAIESFKEALKQKVDFIDAYKSLGQAYRELGNFEAATESFQKALLLNQNHVQTLQLRGMMLYHHGSLQEALKNFKRCLQLEPYNEVCQYMKGLSHVAMGQFYEGIKAQTKVMLNDPLPGQKASPEYLKVKYLREYSRYLHAHLDTPLTEYNIDVDLPGSFKDHWAKNLPFLIEDYEEQPGLQPHIKDVLHQNFESYKPEVQELICVADRLGSLMQYETPGFLPNKRIHRAMGLAALEVMQAVQRTWTNSKVRMNGKTRLMQWRDMFDIAVKWRRIADPDQPVLWLDQMPARSLSRGFNNHINLIRGQVINMRYLEYFEKILHFIKDRILVYHGANNPKGLLEVREALEKVHKVEDLLPIMKFNTKTKDGFTVNTKVPSLKDQGKEYDGFTITITGDKVGNILFSVETQTTEERTQLYHAEIDALYKDLTAKGKVLILSSEFGEADAVCNLILSLVYYFYNLMPLSRGSSVIAYSVIVGALMASGKEVAGKIPKGKLVDFEAMTAPGSEAFSKVAKSWMNLKSISPSYKTLPSVSETFPTLRSMIEVLNTDSSPRCLKKL

— patent US20240261333A1, “NOVEL TARGETS FOR ENHANCING ANTI-TUMOR IMMUNITY” (THE BROAD INSTITUTE, INC., priority 2021, published 2024)
